The values that follow come from US5622828, “High-affinity oligonucleotide ligands to secretory phospholipase A2 (sPLA2)” (Nexstar Pharmaceuticals, Inc.).

Where two headings read alike, the source gives them in different places.

The target in data set [1] is T1, secretory phospholipase A2 (sPLA2) (Homo sapiens, UniProt P14555 P14555:21-144).
T1 sequence: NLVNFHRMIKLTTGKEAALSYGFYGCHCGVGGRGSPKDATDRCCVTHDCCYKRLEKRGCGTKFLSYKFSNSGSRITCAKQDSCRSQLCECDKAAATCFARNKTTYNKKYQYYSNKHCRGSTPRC
Put plainly: filter; biphasic, Kd2 450 nM, mole fraction 0.50; TBSC, 37 C. The conditions noted are these: tags: supplied by Eli Lilly. How it is done: (§1) The nitrocellulose filter partitioning method was used as described in SELEX Patent Applications to determine the affinity of RNA ligands for sPLA_2 and for other promins. Filter discs (nitrocellulose/cellulose acetate mixed matrix, 0.45 µm pore size, Millipore) were placed on a vacuum manifold and washed with 5 ml of TBSC buffer under vacuum. Reaction mixtures, containing ^32P labeled RNA pools and sPLA_2, were incubated in TBSC for 5 minutes at 37° C., filtered, and then immediately washed with 5 ml TBSC. The filters were air-dried and counted in a Beckman liquid scintillation counter without fluor.
(§2) The dissociation constants for representative members of families I–VI, orphan and other ligands were determined by nitrocellulose filter binding experiments and are listed in Table III. Unlike random RNA, all tested ligands from the 2'OH SELEXes bound biphasically.

Another data set concerns the target lysozyme (egg white) (Gallus gallus, UniProt P00698 P00698:19-147). Put plainly: filter; specificity control, like random RNA; TBSC. The conditions noted are these: tags: 6x crystallized. How it is done: (§3) The affinity of sPLA_2 ligands 2, 72, 80, 87, NN19 and NN19.15 (SEQ ID NOs.:11, 20, 53, 54, 64, and 117, respectively) for proteins other than sPLA_2 was determined by nitrocellulose partitioning (Tables IV and V). Like sPLA_2, hen egg white lysozyme, bFGF and elastase are small, highly cationic proteins. Bovine pancreatic PLA_2 is an evolutionarily and structurally related enzyme. […] Specificity is particularly well illustrated by the affinities for bovine pancreatic PLA_2 which is 10^4-fold less than that for human sPLA_2.
(§4) *Standard binding experiments were performed to the specified target protein in TBSC and K_d's is calculated by curve fitting. The ligands bind no better than randomized RNA (30N1) to lysozyme (hen egg-white), human basic fibroblast growth factor basic (bFGF) and bovine pancreatic PLA₂. The sPLA₂ K_d that of the high affinity species.

The target in data set [2] is T2, basic fibroblast growth factor (bFGF) (Homo sapiens, UniProt P09038 P09038:143-288). Nature of the data set: filter; specificity control, like random RNA; TBSC. The protocol:
as §3, §4

The target in data set [3] is pancreatic phospholipase A2 (bpPLA2) (Bos taurus, UniProt P00593 P00593:23-145). Put plainly: filter; specificity control, like random RNA; TBSC. How it is done: as §3, §4
pancreatic phospholipase A2 (bpPLA2), sequence (P00593 23-145, one chain of several): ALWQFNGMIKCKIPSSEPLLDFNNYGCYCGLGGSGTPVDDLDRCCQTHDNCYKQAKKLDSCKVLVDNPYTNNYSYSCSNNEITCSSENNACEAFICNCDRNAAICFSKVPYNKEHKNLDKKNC
The target of data set [4] is T1, secretory phospholipase A2 (sPLA2). Nature of the data set: filter; biphasic, Kd2 840 nM, mole fraction 0.50; TBSC, 37 C. Conditions: tags: supplied by Eli Lilly. The protocol:
as §1, §2

The target is the same in data set [5]. Put plainly: filter; monophasic; Table V prints 1 nM; TBSC, 37 C. Conditions: tags: supplied by Eli Lilly; hairpin with asymmetric internal loop.
The target in the next data set is neutrophil elastase (Homo sapiens, UniProt P08246 P08246:30-267). Nature of the data set: filter; specificity control, like random RNA; TBSC. The protocol: as §3
neutrophil elastase, sequence (P08246 30-267, one chain of several): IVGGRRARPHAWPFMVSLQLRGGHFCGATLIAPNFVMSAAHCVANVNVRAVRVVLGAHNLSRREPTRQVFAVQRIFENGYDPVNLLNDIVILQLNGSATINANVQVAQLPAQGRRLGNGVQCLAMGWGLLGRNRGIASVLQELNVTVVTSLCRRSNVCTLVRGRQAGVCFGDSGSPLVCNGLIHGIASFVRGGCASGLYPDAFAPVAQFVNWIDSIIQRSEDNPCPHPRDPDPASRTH
(§5) *Standard binding experiments were performed to the specified target protein in TBSC and K_d's calculated by curve fitting. The ligands bind no better than randomized RNA (30N1) to human neutrophil elastase, human basic fibroblast growth factor (bFGF), and human immunoglobulin G (IgG and C1q).

The target of data set [6] is T2, basic fibroblast growth factor (bFGF). Put plainly: filter; specificity control, like random RNA; TBSC. The protocol:
as §3, §5
The source holds these as a separate data set.

In data set [7] the target is T1, secretory phospholipase A2 (sPLA2). Nature of the data set: filter; biphasic, Kd2 200 nM, mole fraction 0.20; calcium dependent; TBSC, 37 C. The conditions noted are these: tags: supplied by Eli Lilly. The protocol:
as §1, §2

Data set [8] has the same target. Put plainly: filter; biphasic, Kd2 270 nM, mole fraction 0.13; Table III prints SEQ 103, Table IV SEQ 20; TBSC, 37 C. Conditions: tags: supplied by Eli Lilly. The protocol:
as §1, §2

The target is the same in data set [9]. Nature of the data set: filter; biphasic, Kd2 250 nM, mole fraction 0.30; TBSC, 37 C. Conditions: tags: supplied by Eli Lilly. How it is done:
as §1, §2

For data set [10] the target is unchanged. Nature of the data set: filter; biphasic, Kd2 82 nM, mole fraction 0.50; TBSC, 37 C. Conditions: tags: supplied by Eli Lilly. How it is done: as §1, §2
The target is the same in data set [11]. Nature of the data set: filter; biphasic, Kd2 33 nM, mole fraction 0.55; TBSC, 37 C. Conditions: tags: supplied by Eli Lilly. The protocol:
as §1, §2

For data set [12] the target is unchanged. Nature of the data set: filter; biphasic, Kd2 720 nM, mole fraction 0.40; TBSC, 37 C. The conditions noted are these: tags: supplied by Eli Lilly. The protocol:
as §1, §2

The target is the same in data set [13]. Nature of the data set: filter; biphasic, Kd2 1320 nM, mole fraction 0.50; TBSC, 37 C. The conditions noted are these: tags: supplied by Eli Lilly. How it is done:
as §1, §2

Data set [14] has the same target. Nature of the data set: filter; Table V prints 0.4 nM; TBSC, 37 C. The conditions noted are these: tags: supplied by Eli Lilly.
Another data set deals with C1q (printed Clq) (Homo sapiens, UniProt P02745;P02746;P02747 P02745:23-245,P02746:28-253,P02747:29-245). Put plainly: filter; specificity control, like random RNA; TBSC. Conditions: chain copies: 6. How it is done:
as §3, §5

Data set [15] has as its target T1, secretory phospholipase A2 (sPLA2). Put plainly: filter; biphasic, Kd2 92 nM, mole fraction 0.60; TBSC, 37 C. Conditions: tags: supplied by Eli Lilly. The protocol: as §1, §2
The target is the same in data set [16]. Put plainly: filter; biphasic, Kd2 240 nM, mole fraction 0.50; TBSC, 37 C. Conditions: tags: supplied by Eli Lilly. How it is done: as §1, §2
Data set [17] has the same target. Nature of the data set: filter; biphasic, Kd2 350 nM, mole fraction 0.70; TBSC, 37 C. Conditions: tags: supplied by Eli Lilly. The protocol:
as §1, §2

Data set [18] shares this target. Put plainly: filter; biphasic, Kd2 140 nM, mole fraction 0.65; TBSC, 37 C. The conditions noted are these: tags: supplied by Eli Lilly. The protocol: as §1, §2
Data set [19] shares this target. Nature of the data set: filter; biphasic, Kd2 43 nM, mole fraction 0.25; TBSC, 37 C. Conditions: tags: supplied by Eli Lilly. The protocol:
as §1, §2

Data set [20] has the same target. Put plainly: filter; only low-affinity Kd2 listed; 5' G removed; TBSC, 37 C. The conditions noted are these: tags: supplied by Eli Lilly.
For data set [21] the target is unchanged. Nature of the data set: filter; biphasic, Kd2 150 nM, mole fraction 0.2; conserved G replaced by U; TBSC, 37 C. The conditions noted are these: tags: supplied by Eli Lilly; hairpin with asymmetric internal loop. How it is done: as §1, §2
Setting [22] is: hairpin with asymmetric internal loop.

T2 sequence (P09038 143-288, one chain of several): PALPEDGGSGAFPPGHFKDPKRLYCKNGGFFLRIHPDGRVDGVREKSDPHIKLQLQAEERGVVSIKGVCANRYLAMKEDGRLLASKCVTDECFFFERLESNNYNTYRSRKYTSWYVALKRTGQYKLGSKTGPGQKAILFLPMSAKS
lysozyme (egg white), sequence (P00698 19-147, one chain of several): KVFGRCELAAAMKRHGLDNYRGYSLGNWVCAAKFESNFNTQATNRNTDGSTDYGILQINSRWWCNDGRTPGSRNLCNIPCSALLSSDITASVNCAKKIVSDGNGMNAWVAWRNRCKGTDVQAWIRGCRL
C1q (printed Clq), sequence (P02745 23-245, chain 1 of 3): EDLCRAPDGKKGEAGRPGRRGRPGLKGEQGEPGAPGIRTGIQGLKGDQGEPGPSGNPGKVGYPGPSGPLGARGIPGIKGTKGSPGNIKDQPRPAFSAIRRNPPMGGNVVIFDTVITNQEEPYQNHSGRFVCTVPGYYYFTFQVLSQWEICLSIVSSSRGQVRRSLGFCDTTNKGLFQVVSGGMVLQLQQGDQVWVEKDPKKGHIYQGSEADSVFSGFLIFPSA
C1q (printed Clq), sequence (P02746 28-253, chain 2 of 3): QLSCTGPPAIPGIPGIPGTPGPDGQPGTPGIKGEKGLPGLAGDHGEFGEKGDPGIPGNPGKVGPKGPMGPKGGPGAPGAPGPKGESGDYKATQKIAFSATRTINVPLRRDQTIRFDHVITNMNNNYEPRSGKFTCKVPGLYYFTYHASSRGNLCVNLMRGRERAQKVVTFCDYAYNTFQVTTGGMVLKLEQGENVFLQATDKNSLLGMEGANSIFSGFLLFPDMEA
C1q (printed Clq), sequence (P02747 29-245, chain 3 of 3): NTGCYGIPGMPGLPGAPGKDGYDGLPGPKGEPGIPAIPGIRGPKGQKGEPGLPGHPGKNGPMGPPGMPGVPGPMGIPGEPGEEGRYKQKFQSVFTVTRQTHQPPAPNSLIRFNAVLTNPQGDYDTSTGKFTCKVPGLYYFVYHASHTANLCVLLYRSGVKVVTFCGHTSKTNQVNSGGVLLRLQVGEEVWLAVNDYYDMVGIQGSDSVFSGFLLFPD

B1: 87 (ssRNA)
RNA: GGGAGCUCAGAAUAAACGCUCAAGCUCUGGGAUGAUGCCCACUGUCCAGCAUCUUCGACAUGAGGCCCGGAUCCGGC
For orientation: Kd means the equilibrium constant for the complex coming apart. Turning to B1, the Kd in data set [1] is 0.8 nM; with lysozyme (egg white), 2300 nM; in data set [2], 220 nM; in data set [3], 20000 nM.

B2: 87F (ssRNA)
RNA: GGGAGCUCAGAAUAAACGCUCAAGCUCUGGGAUGAUGCCCACUGUCCAGCAUCUUCGACAUGAGGCCCGGAUCCGGC
modifications: 2'-F all C and U
The molecule B2 had a Kd in data set [4] of 1.2 nM.

B3: NN19 (ssRNA)
RNA: GGGAAAAGCGAAUCAUACACAAGACCGGCCGGCGCCAUAGCCGAGAUCCGAGGUGUUGAACGAUAACUCGGUGCUCCGCCAGAGACCAACCGAGAA
modifications: 2'-NH2 all C and U
On to B3, for which the Kd in data set [5] amounted to 0.4 nM; with neutrophil elastase (setting [22]) it was 40 nM; in data set [6] (setting [22]), 210 nM.

B4: 60 (orphan) (ssRNA)
RNA: GGGAGCUCAGAAUAAACGCUCAAACAACGGCCCACACGGGAGAUCCGAGAAAAGUUCGACAUGAGGCCCGGAUCCGGC
As for B4, the Kd in data set [7] is 0.3 nM.

B5: 72 (ssRNA)
RNA: GGGAGCUCAGAAUAAACGCUCAAGACCUCUGCUUACAGCCCGGCUGAGACACUUCGACAUGAGGCCCGGAUCCGGC
For the molecule B5, the Kd in data set [8] is 0.5 nM; in the data set with lysozyme (egg white) it was 1500 nM; in [2] it was 180 nM; in data set [3] it was 29000 nM.

B6: 87.7 (ssRNA)
RNA: GGGAGCUCAGAAUAAACGCUCAAGCUCUGGGAUGAUGCCCACUGUCCAGCAUCUUCGACAUGUGUAGCUAAACAGCUUUAGGA
In data set [9], B6 showed a dissociation constant (Kd) of 0.8 nM.

B7: 93 (ssRNA)
RNA: GGGAGCUCAGAAUAAACGCUCAACAGCCAAUGUGUCCCGUACGGCGUAUCCUAUUCGACAUGAGGCCCGGAUCCGGC
As to B7, the Kd in data set [10] is 17.2 nM.

B8: 3 (ssRNA)
RNA: GGGAGCUCAGAAUAAACGCUCAAAGCUCAUCGUCUCGCAAGGCGUAUCCUAUUUCGACAUGAGGCCCGGAUCCGGC
B8 had a Kd in data set [11] of 1.9 nM.

B9: 87.3 (ssRNA)
RNA: GGGAGCUCAGAAUAAACGCUCAAGCUCUGGGAUGAUGCCCACUGUCCAGCAUCUUCGACAUG
Take B9: in data set [12], the Kd came out at 0.8 nM.

B10: 87.5 (ssRNA)
RNA: GGGAGCUAUAAACGCAGCUCUGGGAUGAUGCCCACUGUCCAGCAUCUUCGACAUG
With B10, binding in [13] was characterised by a dissociation constant (Kd) of 3.1 nM.

B11: NN19.15 (ssRNA)
RNA: GGGAAAAGAAGACCGGCCGGCGCCAUAGCCGAGAUCCGAGGUGUUGCCGAGAA
modifications: 2'-NH2 all C and U
Take B11: the Kd in data set [14] was 1.7 nM; in the data set with neutrophil elastase it was 40 nM; with C1q (printed Clq) it was 1000 nM; in data set [6], 165 nM.

B12: 85 (ssRNA)
RNA: GGGAGCUCAGAAUAAACGCUCAAAUUGCAUCAUGUACCGCAAGACGUAUUCUAUUCGACAUGAGGCCCGGAUCCGGC
As to B12, in [15], binding was put at a Kd of 3.8 nM.

B13: 18 (ssRNA)
RNA: GGGAGCUCAGAAUAAACGCUCAAAUCGCAUCAUGUACCGCAAGACGUAUUCUAUUCGACAUGAGGCCCGGAUCCGGC
On to B13, for which the Kd in [16] was 5 nM.

B14: 54 (ssRNA)
RNA: GGGAGCUCAGAAUAAACGCUCAAAUUGCAUCAUGUACCGUAAGACGUAUUCUAUUCGACAUGAGGCCCGGAUCCGGC
For the molecule B14, the Kd in data set [17] turned out to be 16.6 nM.

B15: 95 (ssRNA)
RNA: GGGAGCUCAGAAUAAACGCUCAACGCUGGAUACCAUCGCACGGCGUAUCCUGCUUCGACAUGAGGCCCGGAUCCGGC
Consider B15, for which, in data set [18], binding was put at a Kd of 4.5 nM.

B16: 1 (orphan) (ssRNA)
RNA: GGGAGCUCAGAAUAAACGCUCAAGCCGAACCGAAUGGAGGUGGAGGGAUUGCGUUCGACAUGAGGCCCGGAUCCGGC
In turn, B16 gave a dissociation constant Kd in data set [19] of 1.4 nM.

B17: 87.4 (ssRNA)
RNA: GGAGCUCAGAAUAAACGCUCAAGCUCUGGGAUGAUGCCCACUGUCCAGCAUCUUCGACAUG
For B17, the equilibrium dissociation constant (Kd) in [20] amounted to 4350 nM.

B18: NN27 (ssRNA)
RNA: GGGAAAAGCGAAUCAUACACAAGACCGGCCGGGGAAACCCGAGGUCCGAUGUAACGCAUGGCGCCUCACCGAGUCGCUCCGCCAGAGACCAACCGAGAA
modifications: 2'-NH2 all C and U
Take B18: in [21], the Kd is 0.4 nM.
